The values that follow come from IntAct's records for PubMed 7561682.

To fix the notation:
B1: Focal adhesion kinase 1 (Homo sapiens), Q05397 (parent)
chain: MAAAYLDPNLNHTPNSSTKTHLGTGMERSPGAMERVLKVFHYFESNSEPTTWASIIRHGDATDVRGIIQKIVDSHKVKHVACYGFRLSHLRSEEVHWLHVDMGVSSVREKYELAHPPEEWKYELRIRYLPKGFLNQFTEDKPTLNFFYQQVKSDYMLEIADQVDQEIALKLGCLEIRRSYWEMRGNALEKKSNYEVLEKDVGLKRFFPKSLLDSVKAKTLRKLIQQTFRQFANLNREESILKFFEILSPVYRFDKECFKCALGSSWIISVELAIGPEEGISYLTDKGCNPTHLADFTQVQTIQYSNSEDKDRKGMLQLKIAGAPEPLTVTAPSLTIAENMADLIDGYCRLVNGTSQSFIIRPQKEGERALPSIPKLANSEKQGMRTHAVSVSETDDYAEIIDEEDTYTMPSTRDYEIQRERIELGRCIGEGQFGDVHQGIYMSPENPALAVAIKTCKNCTSDSVREKFLQEALTMRQFDHPHIVKLIGVITENPVWIIMELCTLGELRSFLQVRKYSLDLASLILYAYQLSTALAYLESKRFVHRDIAARNVLVSSNDCVKLGDFGLSRYMEDSTYYKASKGKLPIKWMAPESINFRRFTSASDVWMFGVCMWEILMHGVKPFQGVKNNDVIGRIENGERLPMPPNCPPTLYSLMTKCWAYDPSRRPRFTELKAQLSTILEEEKAQQEERMRMESRRQATVSWDSGGSDEAPPKPSRPGYPSPRSSEGFYPSPQHMVQTNHYQVSGYPGSHGITAMAGSIYPGQASLLDQTDSWNHRPQEIAMWQPNVEDSTVLDLRGIGQVLPTHLMEERLIRQQQEMEEDQRWLEKEERFLKPDVRLSRGSIDREDGSLQGPIGNQHIYQPVGKPDPAAPPKKPPRPGAPGHLGSLASLSSPADSYNEGVKLQPQEISPPPTANLDRSNDKVYENVTGLVKAVIEMSSKIQPAPPEEYVPMVKEVGLALRTLLATVDETIPLLPASTHREIEMAQKLLNSDLGELINKMKLAQQYVMTSLQQEYKKQMLTAAHALAVDAKNLLDVIDQARLKMLGQTRPH

In the assay the parent is B1. As to conditions: with paxi_human PXN.
As to L1035A, the “effect of a mutation on the interaction” value is reported as “decreasing interaction”.
Next, V928G: “decreasing interaction”.
With V1037D the entry was “decreasing interaction”; with D1039A, “decreasing interaction”.
With R1042G the entry was “decreasing interaction”.
With L931R, the “effect of a mutation on the interaction” value is recorded as “decreasing interaction”.
With L1034S the entry was “decreasing interaction”; with V935A, “decreasing interaction”.
